Tests used:
Ramos NHL cells = test: In vitro cytotoxicity assay, Ramos cells; type: cell-based, human; details: after 48 hours
Procedure: (§1) FIGS. 2A-C illustrate anti-CD22 mediated cytotoxicity and CD22 internalization. (A) Ligation of CD22 mediates cytotoxicity of NSCLC and NHL B cells. Cells were treated with the anti-CD22 or anti-CD20 mAbs (HB22.7 or rituximab, respectively) (50 ug/ml) for 48 hr then assessed with an MTT assay. (B) Internalization of CD22 was assessed on NSCLC cell lines. The degree of internalization was determined by assessing the cytotoxicity of a carrier protein attached to an anti-mouse mAb (ZAP) compared to a non-cytotoxic control (SAP). HB22.7-ZAP and HB22.7-SAP were assessed in Ramos B-cells (top) and two NSCLC cell lines, A549 and H727 (bottom). […] PBMCs (10:1 PBMC:A549 ratio) were incubated +/− complement (1:10 dilution), or +/− huHB22.7 (50 μg/cc). A549-specific cytotoxicity was assessed with a DELFIA EuTDA cytotoxicity assay and reported as % of control.
(§2) Ramos, A549, or H1650 cells (2-2.5×10^4 per sample) were plated in triplicate in 96 well round bottom plates in a volume of 100 μL per well. Cells were treated for 1 hour with HB22.7, or rituximab to final concentrations of 25 μg/mL. Control cells received media only. […] Viability was assessed by trypan blue exclusion; experiments were done in triplicate and results were expressed as % of control (untreated cells) with the error bars representing the standard deviation.

[1] = test system: NSCLC lines (H1650, Calu-1, A549); test: In vitro cytotoxicity assay, NSCLC lines; type: cell-based, human; details: after 48 hours
Procedure: as §1, §2

rituximab: anti-CD20 control mAb was tested, and the cytotoxic effects (Ramos NHL cells) was “cytotoxic effects” and the cytotoxic response [1] was “no cytotoxic response”.
